Data as given in publication PMC7969121, “Structural and Kinetic Characterization of Hyperthermophilic NADH-Dependent Persulfide Reductase from Archaeoglobus fulgidus” (Archaea, 2021).

Assays:
[1] = molecular target: T1, AfNpsr; A. fulgidus Npsr (Archaeoglobus fulgidus, UniProt O29847); assay: X-ray crystal structure, […] Å; assay type: binding; details: tightly bound catalytic CoA in active site near Cys 42
T1 construct: gene AF_0400; codon-optimized full-length gene in pET21b+, C-terminal His6-tag, E. coli BL21(DE3); FAD added; FAD domain 1-448, rhodanese domain 449-550

[2] = substrate: NC(=O)C1=CN([C@@H]2O[C@H](COP(=O)(O)OP(=O)(O)OC[C@H]3O[C@@H](n4cnc5c(N)ncnc54)[C@H](O)[C@@H]3O)[C@@H](O)[C@H]2O)C=CC1; assay: NADH oxidase, A340, Michaelis-Menten fit; assay type: biochemical, Archaeoglobus fulgidus; details: aerobic, O2 as acceptor, no di-, per- or polysulfide, 50 mM sodium phosphate pH 7.5, 70°C
Source text: NADH oxidase, A340, Michaelis-Menten fit on AfNpsr; A. fulgidus Npsr

[3] = substrate: O=C(O)c1cc(SSc2ccc([N+](=O)[O-])c(C(=O)O)c2)ccc1[N+](=O)[O-]; assay: TNB formation at A412, Michaelis-Menten fit; assay type: biochemical, Archaeoglobus fulgidus; details: 100 μM NADH, aerobic, 50 mM sodium phosphate pH 7.5, 70°C, buffer background subtracted
Source text: TNB formation at A412, Michaelis-Menten fit on AfNpsr; A. fulgidus Npsr

[4] = substrate: N[C@@H](CSS)C(=O)O; assay: NADH oxidation at A340, Michaelis-Menten fit; assay type: biochemical, Archaeoglobus fulgidus; details: 100 μM NADH, aerobic, 50 mM sodium phosphate pH 7.5, 70°C, persulfide made in situ from disulfide + 2-fold sodium sulfide, oxidase background not subtracted
Source text: (§1) NADH oxidation at A340, Michaelis-Menten fit on AfNpsr; A. fulgidus Npsr

[5] = substrate: CC(C)(COP(=O)(O)OP(=O)(O)OC[C@H]1O[C@@H](n2cnc3c(N)ncnc32)[C@H](O)[C@@H]1OP(=O)(O)O)[C@@H](O)C(=O)NCCC(=O)NCCSS; assay: NADH oxidation at A340, Michaelis-Menten fit; assay type: biochemical, Archaeoglobus fulgidus; details: 100 μM NADH, aerobic, 50 mM sodium phosphate pH 7.5, 70°C, persulfide made in situ from disulfide + 2-fold sodium sulfide, oxidase background not subtracted
Source text: as §1

Molecule: CC(C)(COP(=O)(O)OP(=O)(O)OC[C@H]1O[C@@H](n2cnc3c(N)ncnc32)[C@H](O)[C@@H]1OP(=O)(O)O)[C@@H](O)C(=O)NCCC(=O)NCCS [CoA]
- X-ray crystal structure, 3.1 Å [1]: In AfNpsr, CoA is deeply buried

B1: AfNpsr; A. fulgidus Npsr (Archaeoglobus fulgidus DSM 4304) (protein)
chain: MNVVVIGGGAAGLKAASRIRRKDGDASITVVEAGKYVSLGRCGLPYYVGGLVHEVDNLRETTYGAVRDEAYFKKLKNIDVLTETVATEIDRSRKTVKIVRNGSEDELNYDYLVIATGARPAKPPIEGIEAEGVVTLTSAEEAEKIIEMWEEGAEKAVVIGAGFIGLESAEALKNLDMEVTVIEMMDRVAPAMLDREMAVLVENHLREKGVNVVTSTRVEKIVSQDDKVRAVIANGKEYPADVVVVATGIKPNSELAEKAGLKIGETGAIWVDEYMRTSDESIYAGGDCVETTCLVTGKKIIAPFGDVANKQGRVIGENITGGRAVFPGVIRTAIFKVFDFTAASAGVNEQMAKEAGLDYFTVIAPSPDRAHYYPQANYIRLKLIVEKGSWRVIGAQGVGMGEVAKRIDVLSTAIQAGMTIDQLANLDLAYAPPYSPALDPVITIANVAMNKRDGLFEGINVFELKEKLEKEDIVILDVRSEEEFKTRRIESEKVIHIPILELRERLDEIPRDKEIVVVCAIGLRSFEASRILKHAGFEKVKILEGGMAFWF
notes: codon-optimized full-length gene in pET21b+, C-terminal His6-tag, E. coli BL21(DE3); FAD added; FAD domain 1-448, rhodanese domain 449-550
- Km [2]: 20.6 ± 5.1 µM
- kcat [2]: 7.15 ± 0.51 s⁻¹
- kcat/Km [2]: 347000 ± 75000 M⁻¹ s⁻¹
- Km [3]: 743 ± 196 µM
- kcat [3]: 2.44 ± 0.14 s⁻¹
- kcat/Km [3]: 3280 ± 480 M⁻¹ s⁻¹
- Km [4]: 3410 ± 630 µM
- kcat [4]: 230 ± 23 s⁻¹
- kcat/Km [4]: 67600 ± 11000 M⁻¹ s⁻¹
- Km [5]: 547 ± 41 µM
- kcat [5]: 13.2 ± 0.3 s⁻¹
- kcat/Km [5]: 24100 ± 1400 M⁻¹ s⁻¹
